Test results as given in doi:10.1101/2020.06.17.153486 (bioRxiv, 2020).

Molecular target: SARS-CoV-2 spike trimer (S trimer), soluble ectodomain (SARS-CoV-2, Wuhan-Hu-1 type, stabilised)
Test: cryo-EM structure

B1: 2-4 Fab (Fab, V domains shown)
VH: QVQLVQSGAEVKKPGASVKVSCKASGYTFTGYYMHWVRQAPGQGLEWMGWINPNSGGTNYTQMFQGRVTMTRDTSISTAYMEVSRLRSDDTAVYYCARDRSWAVVYYYMDVWGKGTTVTVSS
VL: QSALTQPPSASGSPGQSVTISCTGTSSDVGGYNYVSWYQQHPGKAPKLMIYEVSKRPSGVPDRFSGSKSGNTASLTVSGLQAEDEADYYCSSYAGSNNLVFGGGTKLTVL
  stoichiometry N: 3 Fab per trimer
